In US20040072368A1, “Lipoprotein receptor” (priority 2002, published 2004):

Legend:
[1] = target: β-subunit of ATP synthase (F1 fraction) exposed on submitochondrial particles; test: competition with 5 µg/ml 125I-labeled HDL3 on submitochondrial particles, 2 h at 4 °C
[2] = target: β-subunit of ATP synthase (F1 fraction) exposed on submitochondrial particles; test: binding of 5 µg/ml 125I-labeled HDL3 to submitochondrial particles, 2 h at 4 °C, no competitor; conditions: scale: ng HDL3 protein bound per mg of mitochondrial proteins
[3] = target: porcine liver plasma membrane proteins eluted from apoA-I affinity chromatography; test: SPR (Biacore), 1.5 µg of proteins injected on the apoA-I sensor chip
[4] = target: total solubilised porcine liver plasma membrane proteins; test: SPR (Biacore 3000, B1 chip), apoA-I immobilised by amine coupling, solubilised membrane proteins injected

Row | IC50 (read off the curve) [1] | 100% specific binding [2] | relative increase of binding against crude solubilised homogenate [3] | Kd [4] | Substance
1 | 800 nM | 2050 | – | – | HDL3 (from UniProt P02647 19-267)
2 | – | – | 4 fold | 1 nM | lipid free-apolipoprotein A-I (free-apoA-I) (from UniProt P02647 25-267) (ligand)
